Measured values from patent publication US7629135B2, “Toll-like receptor agonists and antagonists and methods of use thereof” (The Board of Trustees of the University of Illinois, priority 2006, dated 2009).

Assays:
[1] = test system: C57BL/6 mice; assay: SAA-induced neutrophilia in mice; format: in vivo, mouse
Protocol: (§1) SAA stimulates neutrophilia through G-CSF: To investigate whether SAA-induced G-CSF secretion contributes to neutrophilia, in vivo studies were conducted with daily administration of SAA in mice. C57BL/6 mice were injected subcutaneously (s.c.) with a daily dose of 120 μg SAA/kg body weight (˜3 μg of SAA each mouse) for 7 consecutive days. At different time points after the injection was initiated, blood neutrophil numbers were determined and the results were compared to neutrophil numbers prior to SAA administration. […] To establish a causal relationship between SAA-induced G-CSF production and neutrophilia in mice, wild-type C57BL/6 mice wre compared with csf3^−/− mice for changes in neutrophil count.
SAA-induced neutrophilia: For analysis of SAA-induced neutrophil increase, SAA was injected subcutaneously into both G-CSF deficient (csf3^−/−) (n=5) and csf3^+/+ (n=5), age- and sex-matched littermates (8-9 weeks, male), at doses of 120 μg/kg/d in 200 μl PBS. SAA was administered daily for 7 consecutive days (168 h). Blood samples were collected before and at 48, 120, and 168 h after the initial SAA injection. Age and sex-matched mice of both tlr2^−/− (n=7) and C57BL/6 (n=7) were also used for this experiment. Blood was collected by eye puncture using heparinized capillaries and placed into EDTA-treated tubes. Total white blood cell (WBC) count and WBC differential count were determined using a Hemavet 950FS multispecies hematology analyzer (Drew Scientific).

[2] = test system: G-CSF transcript in BMDM; assay: Cytokine transcript induction in BMDM (RT-PCR, real-time PCR); format: cell-based, mouse; settings: SAA 1 μM
Protocol: To investigate the mechanism for SAA-induced G-CSF production, the level of G-CSF transcript in SAA-stimulated BMDM was determined. […] The induction of G-CSF transcript peaked at 4 h after SAA stimulation. Since transcription of the G-CSF gene involves NF-κB binding to the RelA/p65 consensus element in the CK-1 site of the G-CSF promoter (Dunn et al., 1994; Hareng and Hartung, 2002), the role of NF-κB in SAA-stimulated G-CSF expression was determined. […] Using oligonucleotide probe based on the sequence of the CK-1 site (−161 to −152 in the G-CSF promoter), a protein •DNA complex (FIG. 2C) was identified. […] Inclusion of a RelA/p65 antibody blocking peptide in the assay abrogated the immunoprecipitation (FIG. 2D).
TLR2 mediates the effect of SAA in G-CSF expression and neutrophila: To further determine a role of TLR2 in SAA-stimulated G-CSF expression and neutrophilia, wild-type and tlr2^−/− BMDM were stimulated with SAA (1 μM) and the level of G-CSF transcript (FIG. 5A) was determined. SAA induced a 37-fold induction of the mouse G-CSF transcript within 2 h of stimulation. […] Under similar experimental conditions, SAA stimulated increases in the transcripts of M-CSF (encoded by csf1; 11-fold over basal) IL-12p40 (33-fold) and IL-1 receptor antagonist (2.7-fold). In tlr2^−/− BMDM, the SAA-stimulated induction of these transcripts was reduced by 84% (M-CSF), 86% (IL-12p40), and 80% (IL-1 receptor antagonist), respectively. […] The effects of TLR2 gene deletion on SAA-induced G-CSF production and neutrophilia were determined in vivo. Subcutaneous injection of SAA was carried out in wild-type and tlr2^−/− mice for up to 7 days.
Measurement of G-CSF expression: To measure the secreted G-CSF from human monocytes and mouse macrophages in vitro, cells were placed in serum-free DMEM medium and stimulated with the indicated ligands. Cell-free supernatants were collected by centrifugation at 1,000×g for 30 sec and assayed for human or mouse G-CSF using ELISA. Human PBMC were used as 2×10^6 cells/ml/sample, and mouse BMDM were seeded at 10^6 cells/ml and used as 0.5 ml/sample. To measure mouse plasma G-CSF, blood samples were collected and centrifuged at 1,000-2,000×g for 10 min at 4° C. Plasma samples were appropriately diluted and then checked for G-CSF concentration using ELISA. To measure mouse G-CSF transcripts, mouse […] (10^6 cells/ml, 5 ml/sample) were stimulated with 1 μM SAA for different periods of time. Total RNA was isolated with an RNeasy isolation kit (Qiagen) and cDNA was prepared with Superscript reverse transcriptase (Invitrogen). PCR amplification of G-CSF transcripts was accomplished with specific primers (F346: 5′-[…]-3′ (SEQ ID NO:3) and R980: 5′-CAGGGCTCACTGATTT TTTGG-3′) (SEQ ID NO:4), generating a 634-bp fragment. M-actin gene (a 469 bp fragment) was used for verification of equal loading and of RT-PCR efficiency. Real-time quantitative PCR was performed on a ABI PRISM 7000 Sequence Detection System (Applied Biosystems) as described previously (He et al., 2006). All data were analyzed with the ABI PRISM 7000 SDS software (version 1.1). Relative level of mRNA for G-CSF was determined by normalizing with β-actin mRNA level. The sequences of the primers used are: F229 (5′-[…]-3′) (SEQ ID NO:5) and R502 (5′-[…]-3′) (SEQ ID NO:6) for G-CSF and F413 (5′-CCCTAAGGCCAACCGTGAA-3′) (SEQ ID NO:7) and R882 (5′-[…]-3′) (SEQ ID NO:8) for β-actin.

[3] = test system: C57BL/6 mice; assay: Plasma G-CSF in SAA-injected mice (ELISA); format: in vivo, mouse
Protocol: as §1
Measurement of G-CSF expression: To measure the secreted G-CSF from human monocytes and mouse macrophages in vitro, cells were placed in serum-free DMEM medium and stimulated with the indicated ligands. Cell-free supernatants were collected by centrifugation at 1,000×g for 30 sec and assayed for human or mouse G-CSF using ELISA. Human PBMC were used as 2×10^6 cells/ml/sample, and mouse BMDM were seeded at 10^6 cells/ml and used as 0.5 ml/sample. To measure mouse plasma G-CSF, blood samples were collected and centrifuged at 1,000-2,000×g for 10 min at 4° C. Plasma samples were appropriately diluted and then checked for G-CSF concentration using ELISA. […] Real-time quantitative PCR was performed on a ABI PRISM 7000 Sequence Detection System (Applied Biosystems) as described previously (He et al., 2006). All data were analyzed with the ABI PRISM 7000 SDS software (version 1.1). Relative level of mRNA for G-CSF was determined by normalizing with β-actin mRNA level. […]
SAA-induced neutrophilia: For analysis of SAA-induced neutrophil increase, SAA was injected subcutaneously into both G-CSF deficient (csf3^−/−) (n=5) and csf3^+/+ (n=5), age- and sex-matched littermates (8-9 weeks, male), at doses of 120 μg/kg/d in 200 μl PBS. […] Total white blood cell (WBC) count and WBC differential count were determined using a Hemavet 950FS multispecies hematology analyzer (Drew Scientific).

[4] = test system: TLR2-HeLa cells; assay: MAP kinase phosphorylation and IκBα degradation in TLR2-HeLa cells (Western blotting); format: cell-based, human
Protocol: FIG. 8 is a series of protein gels and corresponding Western blotting graphs showing that SAA-induced TLR2-dependent signaling in transfected cells. Serum-starved TLR2-HeLa and mock-transfected HeLa cells were stimulated with SAA (1 μM) or Pam3CSK4 (1 μg/ml) for the indicated time. The phosphorylation level of ERK1/2 (A), p38 (B) and JNK (C) was detected by Western blotting using antibodies recognizing the phosphorylated forms of the MAP kinases (blots). (D) The level of cytoplasmic IκB ? was detected by Western blotting using an anti-IκB ? antibody and the β-actin levels in the corresponding samples were shown as loading controls. […] A representative set of data, from 3 repeating experiments, is presented.

B1: SAA: Recombinant human SAA purchased from PeproTech; major acute-phase protein of 104 amino acids (protein, UniProt P0DJI8 19-122, looked up)
Serum amyloid A-1 protein: RSFFSFLGEAFDGARDMWRAYSDMREANYIGSDKYFHARGNYDAAKRGPGGAWAAEVITDARENIQRFFGHGAEDSLADQAANEWGRSGKDPNHFRPAGLPEKY
peripheral blood neutrophil numbers ([1]; C57BL/6 mice, SAA 120 μg/kg s.c. daily for 7 days, vs PBS, from 48 h): significant rise of neutrophil numbers
SAA-stimulated increase in peripheral blood neutrophils in tlr2−/− mice vs wild-type ([1]; SAA s.c. up to 7 days): significantly lower
peripheral blood neutrophil count response in csf3−/− mice vs wild-type ([1]; csf3−/− mice, SAA 120 μg/kg/d s.c., 48, 120 and 168 h): significantly reduced response
reduction of G-CSF transcript induction in tlr2−/− vs wild-type BMDM [2]: 94%
reduction of IL-1 receptor antagonist transcript induction in tlr2−/− BMDM [2]: 80%
reduction of IL-12p40 transcript induction in tlr2−/− BMDM [2]: 86%
reduction of M-CSF transcript induction in tlr2−/− BMDM [2]: 84%
time of peak induction of G-CSF transcript ([2]; BMDM, RT-PCR): 4 h
induction of G-CSF transcript over basal level ([2]; tlr2−/− BMDM): 2 fold
increase in IL-1 receptor antagonist transcript ([2]; wild-type BMDM): 2.7 fold
increase in IL-12p40 transcript ([2]; wild-type BMDM): 33 fold
increase in M-CSF transcript over basal ([2]; wild-type BMDM): 11 fold
induction of mouse G-CSF transcript ([2]; wild-type BMDM, within 2 h, real-time PCR): 37 fold
plasma G-CSF level ([3]; C57BL/6 mice, SAA 120 μg/kg s.c. daily, end of 7 days): significantly elevated G-CSF level
plasma G-CSF in tlr2−/− mice vs wild-type ([3]; SAA s.c. up to 7 days, 168 h): significantly less G-CSF
plasma concentration of G-CSF, maximum ([3]; SAA-injected C57BL/6 mice, 168 h): 97 pg/mL
IκBα degradation ([4]; TLR2-HeLa cells, SAA 1 μM): IκBα degradation
phosphorylation of MAP kinases ERK1/2, p38 and JNK ([4]; TLR2-HeLa cells, SAA 1 μM): robust phosphorylation
ERK1/2 phosphorylation in mock-transfected cells ([4]; mock-transfected HeLa cells, 10 min, SAA 1 μM, Pam3CSK4 1 μg/ml): induced ERK1/2 phosphorylation
IκBα degradation in mock-transfected cells ([4]; mock-transfected HeLa cells, SAA stimulation): No IκBα degradation
